Reference: patent publication US20070218516A1 (UNITED STATES OF AMERICA AS REPRESENTED BY THE SERCRETARY …, published 2007)

T1: botulinum neurotoxin serotype B (BoNT/B) (Clostridium botulinum, UniProt P10844 2-1291)
T1 sequence: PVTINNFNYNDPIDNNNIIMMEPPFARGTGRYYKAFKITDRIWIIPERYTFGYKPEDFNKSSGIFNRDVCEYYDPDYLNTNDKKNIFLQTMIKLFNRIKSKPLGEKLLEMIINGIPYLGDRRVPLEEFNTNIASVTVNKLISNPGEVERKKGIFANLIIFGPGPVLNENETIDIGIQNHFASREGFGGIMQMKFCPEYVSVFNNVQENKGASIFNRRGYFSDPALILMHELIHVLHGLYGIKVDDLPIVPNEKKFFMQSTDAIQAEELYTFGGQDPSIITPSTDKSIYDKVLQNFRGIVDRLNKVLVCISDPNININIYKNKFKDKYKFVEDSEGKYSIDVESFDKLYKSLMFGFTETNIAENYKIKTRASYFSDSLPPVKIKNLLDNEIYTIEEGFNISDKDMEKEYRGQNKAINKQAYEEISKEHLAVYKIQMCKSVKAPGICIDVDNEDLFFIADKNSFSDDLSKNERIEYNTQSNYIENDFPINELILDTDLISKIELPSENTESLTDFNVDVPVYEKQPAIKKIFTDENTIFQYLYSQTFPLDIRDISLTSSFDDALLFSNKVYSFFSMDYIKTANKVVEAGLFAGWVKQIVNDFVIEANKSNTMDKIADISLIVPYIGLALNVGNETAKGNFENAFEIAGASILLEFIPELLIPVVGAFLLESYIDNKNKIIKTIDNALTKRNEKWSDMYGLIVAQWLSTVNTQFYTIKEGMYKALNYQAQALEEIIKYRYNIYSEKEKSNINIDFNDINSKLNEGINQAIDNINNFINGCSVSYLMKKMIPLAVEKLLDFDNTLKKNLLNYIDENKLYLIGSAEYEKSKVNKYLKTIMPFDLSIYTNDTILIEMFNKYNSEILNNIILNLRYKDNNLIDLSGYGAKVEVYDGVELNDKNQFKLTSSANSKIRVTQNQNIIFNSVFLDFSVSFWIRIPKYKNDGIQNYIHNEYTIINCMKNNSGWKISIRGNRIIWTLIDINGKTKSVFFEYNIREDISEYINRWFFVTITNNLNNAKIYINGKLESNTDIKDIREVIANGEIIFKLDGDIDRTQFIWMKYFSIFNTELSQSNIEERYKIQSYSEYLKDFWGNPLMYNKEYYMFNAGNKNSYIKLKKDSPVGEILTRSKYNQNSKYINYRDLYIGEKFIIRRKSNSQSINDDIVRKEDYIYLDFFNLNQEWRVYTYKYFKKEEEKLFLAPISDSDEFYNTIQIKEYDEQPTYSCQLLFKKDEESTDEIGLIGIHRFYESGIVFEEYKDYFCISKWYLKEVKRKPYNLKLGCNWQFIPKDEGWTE


Experiments:
[1] = target: T1, botulinum neurotoxin serotype B (BoNT/B); assay: direct ELISA, […], antibody at 1.25 ug/ml
[2] = target: T2, botulinum neurotoxin serotype A (BoNT/A) (Clostridium botulinum, UniProt P0DPI0 2-1296); assay: direct ELISA, […], antibody at 1.25 ug/ml
[3] = target: T1, botulinum neurotoxin serotype B (BoNT/B); assay: capture ELISA, antibody coated at 5.0 ug/ml
[4] = target: T2, botulinum neurotoxin serotype A (BoNT/A); assay: capture ELISA, antibody coated at 5.0 ug/ml
[5] = target: T1, botulinum neurotoxin serotype B (BoNT/B); assay: capture ELISA titration, antibody at 5.0 ug/ml
[6] = target: T2, botulinum neurotoxin serotype A (BoNT/A); assay: capture ELISA titration, antibody at 5.0 ug/ml

T2 sequence (P0DPI0 2-1296 limits assumed): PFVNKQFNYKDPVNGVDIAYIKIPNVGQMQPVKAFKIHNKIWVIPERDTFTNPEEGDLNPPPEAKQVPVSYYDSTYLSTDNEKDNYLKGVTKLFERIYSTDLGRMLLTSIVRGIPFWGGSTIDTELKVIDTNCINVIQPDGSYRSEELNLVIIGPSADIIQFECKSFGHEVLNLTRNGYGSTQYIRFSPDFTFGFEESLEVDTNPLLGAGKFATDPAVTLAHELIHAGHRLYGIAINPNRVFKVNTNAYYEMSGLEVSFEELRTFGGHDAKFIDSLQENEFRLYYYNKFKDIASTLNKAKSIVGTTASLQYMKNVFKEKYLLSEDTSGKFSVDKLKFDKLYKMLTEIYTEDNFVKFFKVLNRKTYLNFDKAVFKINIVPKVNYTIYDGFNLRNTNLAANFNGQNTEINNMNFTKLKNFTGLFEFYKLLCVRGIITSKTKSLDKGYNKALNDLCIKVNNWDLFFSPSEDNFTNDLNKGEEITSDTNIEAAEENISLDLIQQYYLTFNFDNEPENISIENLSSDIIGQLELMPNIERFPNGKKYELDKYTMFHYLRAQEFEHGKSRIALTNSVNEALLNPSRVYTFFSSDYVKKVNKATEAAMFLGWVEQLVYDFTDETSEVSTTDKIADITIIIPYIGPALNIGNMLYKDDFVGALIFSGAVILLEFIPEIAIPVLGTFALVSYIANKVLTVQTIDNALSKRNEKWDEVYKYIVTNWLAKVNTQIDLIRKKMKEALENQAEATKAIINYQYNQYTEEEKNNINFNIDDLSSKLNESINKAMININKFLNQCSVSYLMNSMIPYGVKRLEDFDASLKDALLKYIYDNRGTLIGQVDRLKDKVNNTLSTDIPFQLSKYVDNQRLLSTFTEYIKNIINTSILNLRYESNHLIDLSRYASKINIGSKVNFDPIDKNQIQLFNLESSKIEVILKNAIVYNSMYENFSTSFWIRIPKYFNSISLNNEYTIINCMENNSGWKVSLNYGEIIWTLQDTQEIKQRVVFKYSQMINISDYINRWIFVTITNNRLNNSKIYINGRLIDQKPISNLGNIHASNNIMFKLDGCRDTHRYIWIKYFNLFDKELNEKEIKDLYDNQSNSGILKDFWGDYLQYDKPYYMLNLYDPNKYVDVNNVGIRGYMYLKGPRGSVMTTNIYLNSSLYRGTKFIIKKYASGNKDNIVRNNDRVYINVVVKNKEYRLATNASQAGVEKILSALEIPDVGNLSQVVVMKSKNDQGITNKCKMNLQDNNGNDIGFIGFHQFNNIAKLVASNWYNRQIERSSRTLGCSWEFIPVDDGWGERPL

Row | Binder | detection limit [1] | detection limit [2] | detection limit [3] | detection limit [4] | lowest amount detected [5] | lowest amount detected [6]
1 | rHu-BF5-A6 (antibody, V domains shown) VH: EVQLQQSGAELVKPGASVKLSCTASGFNIKDTFMHWVKQRPEQGLEWIGRIDPANGNTEYDPKFQGKATITADTSSNTVNLQLSSLTSEDTAVYYCASGGELGFPYWGQGTLVTVSA VL: DIQMTQSPASLSASVGETVTITCRASGNIHNYLAWYQQKQGKSPQLLVYNAKTLADGVPSRFSGSGSGTQYSLKINSLQPEDFGSYYCQHFWSTPWTFGGG | 11.8 ng | 9.4 ng | 0.35 ng | 0.29 ng | 0.4 ng | 0.3 ng
2 | rHu-BF5-B1 (antibody, V domains shown) VH: EVQLQQSGAELVKPGASVKLSCTASGFNIKDTFMHWVKQRPEQGLEWIGRIDPANGNTEYDPKFQGKATITADTSSNTVNLQLSSLTSEDTAVYYCASGGELGFPYWGQGTLVTVSA VL: DIQMTQSPASLSASVGETVTITCRASGNIHNYLAWYQQKQGKSPQLLVYNAKTLADGVPSRFSGSGSGTQYSLKINSLQPEDFGSYYCQHFWSTPWTFGGG | 11.8 ng | 9.4 ng | 0.35 ng | 0.29 ng | 0.4 ng | 0.3 ng
